These results are taken from the DeepSol protein solubility set.

The nature of the data set: soluble on expression in E. coli; label from the status in PepcDB or PDB records.
Turning to “MGSDKIHHHHHHMEWEVFEYRTKGIMAEIEAGRLKIVSSYVDKSFSARVILKGRVGFASASTRDEALSLAEKIARISEDELEDFPNEKPASVKGIYDKRVEEADSELIMEEFERLRSAVEKANIASATIEHAVEEVRITNSFGLDSREKSTSSSMIVEAVFEGGSAYEVCGSRSIELDIEGAAKKAEELAVDSAKAIKIEGGTYDVILQPIAVHQLLSNTLYPSLSAENVEKGRSVIRLGDEFGRITVIDDPTVEGGLMSCGFDDEGVSARKTFLIDNGVVRSYYTDWKHSKKYGVTGNGFRLEESSFPAPMVSNVVLEVDDADDDNCLTIHSLIGSHTANPVSGDFSLECNNAYFGEKAVKGAMIYGNVFELLKKVEGGLGELRQIENTVTKSLRFRSVRVI”, the “soluble on expression in E. coli” value is recorded as “not soluble”.

With “MGSDKIHHHHHHMEYIVRTHKIGIYEKALPKNLSWQDRLSIAKACGFDFVEISIDETDERLARLDWSKAERIELVTAIISTGITIPSMCLSGHRRFPFGSRDEATRQKAFEIMKKAIQLAVDLGIRTIQLAGYDVYYEEQDEGTIQRFQQGLEWAVKLAASHQVTIAVEIMDTQFISSISRWKKWDNIIRSPWFTVYPDLGNLSAWNENVSEELKLGIDKISAIHLKDTYKVTTTSKGQFRDVPFGAGCVDFVQCFRILSELNYRGAFLVEMWTEKAEEPITEIINARRWIEQKMKEGGFQC”, the “soluble on expression in E. coli” value was “not soluble”.

For the sequence “MGSDKIHHHHHHMFEEIAYMILADGNEKSRFEANAYLRAARSLRSITEDVEDIYNRGGIEALTSVEGIGKKIASYIEEYIKTGRIKRYDDLKIRYPVDFRDLSRVQGLGPRKIVSLYKYAGVKNIDDLKAALADHRIASIPGFGEKSEKEIAENIQIAEMSFRRIPLPQGYRTAMEIADEIERAAGTVRVSVAGSIRRMRDTVGDIDLLCVTSDPPRAIAAFTGSKHCQRVVSSGEKKVTIATDAGVTCDLRIIDKGSFGSALQYFTGSKDHNIKLRKIAIDRGLKLNEYGLFRGNSNLVENQGEEKIYAELGMQYIPPELREDRGEIDRAISMTLPELVEAGDIRGDLYISYEFIRKYGADVLKKMERLQYFGVVLGSPEEKEGIKSVMNDGRIFLGIELTSKTYAEDAGEFDFTVLDLSGFPDEASARGAIESVKPTFIRNVTGRTFSSGRKMDPANIFEAAAKSGSAVMITASNDAFDPVAEDIMPHREGLMFALASFAQRPDDLGDMTFGIGIARRAWISKDRIINTMDYEKIAKIMRRP”, the “soluble on expression in E. coli” value is given as “not soluble”.

For “MGSDKIHHHHHHMFEGPIIDARIKSIASGFRAVSVYVDATSAEEGRFDPRLLGEACDCALADGPAWAEAHLASWSDAYAVFGAKPNRTPCSAQALRKRVLKDGTLSTINPIVDLYNAISLKYAVPVGGENFDAYVGRPHLTVADGSETFDTMVNGEAVNDPPLPGEVIWRDDIGVTCRRWNWRQGTRTRLKTLTGRMWFVLEALETMPDDALAEATDAMVGGLNALMPGCKIASQEIAIAG”, the “soluble on expression in E. coli” value was “not soluble”.

As for “MGSDKIHHHHHHMFENILWKMVKKRLIPKRKISRVHRSRKGVKRVVCVAFPLDQMFKSADDFIDALMEILQEDLPFVDLLIFPRLTGNLLAGVSPIRIENFEKLDPFYTDLLRYISKGLDVPIVAPGVETFRTSPDVLVIENGEVLHRYTLRERFAVADFGEWYAAVLRKEDTLSSKALRPLVEKNVFAFIHFDLETEENDWWKEKKGLWARSQSLEVFGIKVSPRGTFLGKTYRGKSYVSAPIPLTPNLTGFLRQDCGVKMSVDLELDLLKGKRHRIDTVKHILFRG”, the “soluble on expression in E. coli” value is recorded as “not soluble”.

“MGSDKIHHHHHHMFIVSKQTTTEYGTGCFAAPSSSCQSEYNPKVENDAVAHNSISGLRGSLRRNSSNLSSQLTALQETCLADAAQIEINCSTSNAKQAFFVKIEVPTGEQGVLHFSPSSGDISQVFTPIQNGCGHGVWKFVVCTMENGSEIAHSQVSRNLDGVGILFFNVYEDLEIRLAQQEFLHISHCHTRRH”: the “soluble on expression in E. coli” value was “not soluble”.

For the sequence “MGSDKIHHHHHHMFKGIIAALWDMDSIGEIEPDVVFLLKSDILNLKFHLKILKDRGKTVFVDMDFVNGLGEGEEAILFVKKAGADGIITIKPKNYVVAKKNGIPAVLRFFALDSKAVERGIEQIETLGVDVVEVLPGAVAPKVARKIPGRTVIAAGLVETEEEAREILKHVSAISTSSRILWKMKFLP”, the “soluble on expression in E. coli” value is on record as “soluble”.

On to “MGSDKIHHHHHHMFQYFPTNYVWSLSAMIALTHGGQIGEVDQMCAPLVDAARAGNDPGTLAFFNAWKSGADKLAELAEEDKSGGRLLSAGEKLGRAALYYIIAERMQAHDFDGRLALYKHSLDVFLEGVRLARENCERIEIPYQDRHISGLYVRAVGVQGRAPVVVVMNGLDSTKEMLYRSCITSYLSRRGVAVLLVDQPGTGEALRLQKLHAIPQTEIWASKIVDYLQARTDIDPVRIGALGVSLGGYYAPRAVAFEPRFAAGAVWGANHDWREVQKRRLAREGENPVPHYWKHVEWVFGASDLDDFMQCAEAMHLNGVLDRIKVPFLVTHGENDRQIPVQYAHQTYEQLANSPRRELKIFTAREGGVEHSSLDNPTNAGSYIADWLAEQLHGTTA”, for which the “soluble on expression in E. coli” value is “not soluble”.

As for “MGSDKIHHHHHHMFSARLKAIAQPVLADIENHPFVRGIQAGAVPAAALMVYVEQDTCFLDAFAKVYAGALSKCTTKDQMRFFEEQIRYTLNDEAGAHQILCDIAGQKLSDHQHAKQRPITYLYNEHLFNALRTGDLIDLIAAMLPCPWTYTEISQQIVDGAAPDNPFLPWIEFYQPQPGQIDGSMVKTLFGMVDELAIGLSEERQHEIEQRFLRSCELEYEFWEQAYYQKDWKYKN”, the “soluble on expression in E. coli” value is recorded as “not soluble”.

As for “MGSDKIHHHHHHMGAVVVKDLRKRIGKKEILKGISFEIEEGEIFGLIGPNGAGKTTTLRIISTLIKPSSGIVTVFGKNVVEEPHEVRKLISYLPEEAGAYRNMQGIEYLRFVAGFYASSSSEIEEMVERATEIAGLGEKIKDRVSTYSKGMVRKLLIARALMVNPRLAILDEPTSGLDVLNAREVRKILKQASQEGLTILVSSHNMLEVEFLCDRIALIHNGTIVETGTVEELKERYKAQNIEEVFEEVVKCSENF”, the “soluble on expression in E. coli” value is “soluble”.

“MGSDKIHHHHHHMGDLSFIAINDKCEVVLDNEIYKSNIQGIEEKYIAISLPVANGTYAIMHKGDMTEIWCYHDNQVYSFTSTVIERKKEDAIKLILISKPSYENIKRVQRRKNFRVDLIESIKYKVLNKNVVKTEIEKLKEASEEFSDGYMIDLSGGGLKIRIKQKPNVGDSIFVNLPIGDQKLFLISTCVRAIREVNGEYLCGLEFDDDIDERIREHIINYTFNIMRKHMKKR”: the “soluble on expression in E. coli” value is “not soluble”.

For the sequence “MGSDKIHHHHHHMGEKMLGIINATGSFPSLKKVTGHRSLAALPFGGRYRLIDFMLSNMVNSNIHSVAVFTSHKNRSLMDHVGSGKQWDLDRKRDGLFLFPPNCQCDQDEFGSFAHFRRHIDYFLRAREEYVVITNSHLVTALNFQAVLERHIHTAADITEVCHEGVSLQTYVLKKQLLLDLFDSYKDVEQYSLFDVVREKRGKSLHIATYEHTGYVAIIDSIESYYKHSLEILQPAIWKQLFKKEAPIFTKVKDEPPTRYVKGAVVKNTMIANGSIIEGEVENSVVSRSVKIGKGSIVRNSIIMQKSQIGDNCIIDGVIIDKDVKIGDGVVLKGNADEPYVVEKGSVQNSTINSYS”, the “soluble on expression in E. coli” value is on record as “not soluble”.

“MGSDKIHHHHHHMGERTEDYRYVKTQHKIYTALIALLKKRAFDDITVRDLCQAAQVSRSGFYLHFVDKYDLVDSYGRDLVKMGMRLFYANRGNGLETLYTELLTLINEQGDLITLLLSRKGSVEIQNQIKNQLRQNAADNILPYYGIKNQSPVAQRYLIAMTTGAVLSILQEWLDSGKQESPAELVAVMQEQVMPTLQRSQFRL”: the “soluble on expression in E. coli” value is “not soluble”.

Turning to “MGSDKIHHHHHHMGETVPEKAQGAIRHGGNLGKARLMFRQAPEPWIDLSTGINPHSYPHSPIPASAFARLPEPGAAEELKQLAAAHFGAPSAQHVTLSPGTQMLMPLLAQIAINRGAQSGAVLSPAYAEHARTARMAGLTVTEVENIGDLSAYGYAVVVNPNNPDGRITDREALLALAGTIGRKGGLLVVDEAFIETGGAESLAVATNGEALVVLRSFGKFYGMAGVRLGFAIAHPEIAAELEARLGPWAVSGPALHIATEALADREWQSSMRLRLAEEARRMNELLEKAGLKIAGGTSLFTLVRDERSRALFGHLGRRGILVRIFDERPDDMRFGLPGSEADWQRVEEALRSFDHSSKV”, the “soluble on expression in E. coli” value was “not soluble”.
